In publication PMC4110039:

What was measured:
[1] = target: HIV-1 JR2 wild type Env (trimer of gp120-gp41 heterodimers) on pseudotyped virus (HIV-1 (isolate JR2))
[2] = target: HIV-1 JR2 F673L mutant Env (trimer of gp120-gp41 heterodimers) on pseudotyped virus (HIV-1 (isolate JR2))

## C34 peptide
[1]
  IC50 of neutralization of pseudotyped virus (single cycle entry assay, TZM-bl cells); C34 acts on the NHR of gp41: 1.2 µg/mL
[2]
  IC50 of neutralization of pseudotyped virus (single cycle entry assay, TZM-bl cells); C34 acts on the NHR of gp41: 0.9 µg/mL
